Data from PMC9524831 (Science Advances, 2022).
Residue numbers refer to the chain shown, from its start. Numbers in names are those of the source. Blank lines part the entries; values can stand above or below the binder they belong to.

Molecular target: HA-GluA1 (mouse AMPA receptor subunit GluA1) (mouse, UniProt P23818 19-907)
Test: cell-based or functional assay

Chain of HA-GluA1 (mouse AMPA receptor subunit GluA1) (P23818 19-907): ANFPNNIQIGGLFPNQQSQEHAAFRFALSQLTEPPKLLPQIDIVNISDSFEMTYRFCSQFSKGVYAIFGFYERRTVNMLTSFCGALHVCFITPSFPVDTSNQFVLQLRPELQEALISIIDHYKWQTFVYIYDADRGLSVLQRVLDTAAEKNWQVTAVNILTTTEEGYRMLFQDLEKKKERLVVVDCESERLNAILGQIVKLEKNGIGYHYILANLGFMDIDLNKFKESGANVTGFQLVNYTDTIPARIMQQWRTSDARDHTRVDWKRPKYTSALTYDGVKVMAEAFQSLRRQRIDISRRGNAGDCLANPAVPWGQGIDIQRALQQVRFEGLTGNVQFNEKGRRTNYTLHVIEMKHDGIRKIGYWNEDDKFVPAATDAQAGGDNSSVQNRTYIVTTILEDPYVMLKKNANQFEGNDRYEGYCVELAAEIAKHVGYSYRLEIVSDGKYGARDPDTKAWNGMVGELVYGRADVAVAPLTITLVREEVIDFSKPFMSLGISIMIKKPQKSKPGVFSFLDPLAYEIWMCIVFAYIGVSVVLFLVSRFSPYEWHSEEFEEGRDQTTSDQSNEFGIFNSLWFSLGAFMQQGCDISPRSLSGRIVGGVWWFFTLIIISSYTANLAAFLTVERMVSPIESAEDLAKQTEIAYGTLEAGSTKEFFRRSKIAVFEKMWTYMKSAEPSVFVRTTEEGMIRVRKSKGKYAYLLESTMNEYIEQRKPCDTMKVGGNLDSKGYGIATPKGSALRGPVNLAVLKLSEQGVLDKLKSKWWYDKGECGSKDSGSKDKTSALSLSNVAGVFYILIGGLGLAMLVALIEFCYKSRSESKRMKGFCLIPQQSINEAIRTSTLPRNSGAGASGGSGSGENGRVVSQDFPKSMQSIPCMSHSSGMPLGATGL

- GluA1 polyubiquitination level relative to wild-type RNF220 transfection: 0.34
B1: RNF220(R363Q) (enzyme, mouse, UniProt Q6PDX6 1-566, looked up)
chain: MDLHRAAFKMENSSYLPNPLASPALMVLASTAEASRDASIPCQQPRPFGVPVSVDKDVHIPFTNGSYTFASMYHRQGGVPGTFANRDFPPSLLHLHPQFAPPNLDCTPISMLNHSGVGAFRPFASTEDRESYQSAFTPAKRLKNCHDTESPHLRFSDADGKEYDFGTQLPSSSPGSLKVDDTGKKIFAVSGLISDRETSSSPEDRNDRCKKKAVALFDSQAPLCPICQVLLRPSELQEHMEQELEQLAQLPASKNSLLKDAMAPGTPKSLLLSASIKREGDSPTASPHSSATEDLHHSDRYQTFLRVRANRQTRLNARIGKMKRRKQDEGQREGSCMAEDDAVDIEHADSNRFEEYEWCGQKQIRATTLLEGGFRGSGFVMCSGKENPDSDADLDVDGDDTLEYGKPQYTEADVIPCTGEEPGEAKEREALRGAVLNGGPPSTRITPEFSKWASDEMPSTSNGEGSKQEAMQKTCKNSDIEKITEESAVTTFEALKARVRELERQLSRGDRYKCLICMDSYSMPLTSIQCWHVHCEECWLRTLGAKKLCPQCNTITAPGDLRRIYL

- GluA1 polyubiquitination level relative to wild-type RNF220 transfection: 0.3
B2: RNF220(R365Q) (enzyme, mouse, UniProt Q6PDX6 1-566, looked up)
chain: B1 chain with Q363R, R365Q
